The supplement of paper PMC9112550, “Optimization of the antimicrobial peptide Bac7 by deep mutational scanning” (BMC Biology, 2022)

test system: Escherichia coli TOP10; test: shrunken log2 fold change of peptide-encoding DNA abundance (4.5 h post-induction vs induction); higher = less antimicrobial activity (less host growth inhibition); settings: time post-induction: 4.5 h; library: site-saturation at positions 5, 18, 19, 20
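Note: peptides expressed intracellularly from a pBAD plasmid library in pooled LB shake-flask culture, induced with 0.3% L-arabinose, DNA abundance read by NGS, three biological replicates, DESeq2 with apeglm shrinkage.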

Sequence | shrunken log2 fold change
RRIRARPPRLPRPRPRPGTKPRP | 0.0261
RRIRERPPRLPRPRPRPWELPRP | -0.238
RRIRGRPPRLPRPRPRPFCAPRP | 0.836
RRIRFRPPRLPRPRPRPLLPPRP | -0.142
RRIRGRPPRLPRPRPRPTDKPRP | 0.705
RRIRIRPPRLPRPRPRPWGTPRP | -0.859
RRIRLRPPRLPRPRPRPSFPPRP | -0.159
RRIRKRPPRLPRPRPRPAYTPRP | -0.0132
RRIRCRPPRLPRPRPRPGPAPRP | 0.543
RRIRMRPPRLPRPRPRPITMPRP | 0.0833
RRIRGRPPRLPRPRPRPAVPPRP | 0.686
RRIRQRPPRLPRPRPRPGDDPRP | 0.176
RRIRFRPPRLPRPRPRPDNRPRP | -0.0149
RRIRERPPRLPRPRPRPRVPPRP | 0.425
RRIRNRPPRLPRPRPRPRGNPRP | 0.26
RRIRSRPPRLPRPRPRPFVTPRP | -0.0434
RRIRRRPPRLPRPRPRPMLLPRP | -0.0984
RRIRPRPPRLPRPRPRPYHHPRP | -0.655
RRIRKRPPRLPRPRPRPTCAPRP | 0.786
RRIRERPPRLPRPRPRPLPDPRP | -0.0462
RRIRSRPPRLPRPRPRPFRKPRP | -0.176
RRIRMRPPRLPRPRPRPSRQPRP | 0.956
RRIRVRPPRLPRPRPRPREYPRP | 0.0223
RRIRARPPRLPRPRPRPEIAPRP | 0.992
RRIRKRPPRLPRPRPRPCWEPRP | 0.0666

Sequence | shrunken log2 fold change
RRIRHRPPRLPRPRPRPFCHPRP | -0.308
RRIRQRPPRLPRPRPRPDQQPRP | 0.0334
RRIRPRPPRLPRPRPRPSPHPRP | -0.367
RRIRWRPPRLPRPRPRPYLTPRP | -0.089
RRIRERPPRLPRPRPRPCMYPRP | -0.201
RRIRQRPPRLPRPRPRPWTQPRP | 0.0496
RRIRKRPPRLPRPRPRPIKVPRP | -0.386
RRIRTRPPRLPRPRPRPRVTPRP | -0.163
RRIRYRPPRLPRPRPRPEHKPRP | -0.605
RRIRMRPPRLPRPRPRPRRSPRP | 0.438
RRIRKRPPRLPRPRPRPNSEPRP | 2.18
RRIRCRPPRLPRPRPRPVIPPRP | -0.392
RRIRNRPPRLPRPRPRPTRHPRP | 0.162
RRIRFRPPRLPRPRPRPITVPRP | -0.177
RRIRWRPPRLPRPRPRPMQMPRP | 1.53
RRIRLRPPRLPRPRPRPVCCPRP | -0.185
RRIRERPPRLPRPRPRPKFMPRP | -0.293
RRIRTRPPRLPRPRPRPGRQPRP | 0.0723
RRIRNRPPRLPRPRPRPHHCPRP | -0.0844
RRIRCRPPRLPRPRPRPCYKPRP | 0.0187
RRIRGRPPRLPRPRPRPNLMPRP | 0.144
RRIRLRPPRLPRPRPRPQHVPRP | -0.316
RRIRTRPPRLPRPRPRPIIQPRP | -0.487
RRIRYRPPRLPRPRPRPWPPPRP | 0.194
RRIRVRPPRLPRPRPRPIYVPRP | -0.0279

Sequence | shrunken log2 fold change
RRIRTRPPRLPRPRPRPYVIPRP | -1.03
RRIRVRPPRLPRPRPRPMAYPRP | -0.012
RRIRWRPPRLPRPRPRPARTPRP | 0.705
RRIRFRPPRLPRPRPRPNSYPRP | -0.372
RRIRPRPPRLPRPRPRPCTAPRP | -0.109
RRIRRRPPRLPRPRPRPCSMPRP | 0.464
RRIRFRPPRLPRPRPRPYRQPRP | -0.477
RRIRQRPPRLPRPRPRPGNWPRP | -0.0235
RRIRCRPPRLPRPRPRPVLEPRP | -0.249
RRIRMRPPRLPRPRPRPKHMPRP | 0.171
RRIRSRPPRLPRPRPRPWYKPRP | -0.137
RRIRPRPPRLPRPRPRPMTYPRP | -0.437
RRIRIRPPRLPRPRPRPDRTPRP | -0.0709
RRIRIRPPRLPRPRPRPHKNPRP | -0.528
RRIRQRPPRLPRPRPRPTPHPRP | 0.397
RRIRNRPPRLPRPRPRPSWRPRP | 0.0128
RRIRPRPPRLPRPRPRPWKKPRP | -0.0306
RRIRDRPPRLPRPRPRPFHDPRP | -0.157
RRIRSRPPRLPRPRPRPDHFPRP | 0.0963
RRIRPRPPRLPRPRPRPNQTPRP | 0.106
RRIRSRPPRLPRPRPRPVFLPRP | -0.131
RRIRGRPPRLPRPRPRPAQCPRP | 0.471
RRIRFRPPRLPRPRPRPAPHPRP | 0.442
RRIRHRPPRLPRPRPRPTWSPRP | 0.0859
RRIRNRPPRLPRPRPRPHEGPRP | -0.015
